The source of these data is patent publication US11155612 (CENTRO DE INVESTIGACI N CIENT FICA Y DE EDUCACI N SUPERIOR …, dated 2021).

The target in this assay is VEGF (added at 4 ng/ml in the HUVEC/NHDF angiogenesis assay). Put plainly: cell-based or functional assay.
Sequence of VEGF (added at 4 ng/ml in the HUVEC/NHDF angiogenesis assay) (P15692 whole entry): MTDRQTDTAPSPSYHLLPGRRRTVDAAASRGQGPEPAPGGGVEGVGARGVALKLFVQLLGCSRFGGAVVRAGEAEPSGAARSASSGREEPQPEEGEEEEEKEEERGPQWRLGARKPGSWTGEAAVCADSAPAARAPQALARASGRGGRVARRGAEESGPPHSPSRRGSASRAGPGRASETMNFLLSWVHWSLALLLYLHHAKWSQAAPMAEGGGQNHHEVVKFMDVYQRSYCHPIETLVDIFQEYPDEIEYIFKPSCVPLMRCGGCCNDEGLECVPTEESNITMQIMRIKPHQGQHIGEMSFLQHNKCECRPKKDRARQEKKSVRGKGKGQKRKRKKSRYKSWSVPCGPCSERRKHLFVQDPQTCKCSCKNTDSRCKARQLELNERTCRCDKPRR

B1: vNAR V13 (parental sequence) (other)
chain: ASLDQTPRTATRETGESLSINCVLTDTSHILFGTKWLWNNPGSTDWESITIGGRYAESVNNQAKSFSLQIKDLTVEDSGTYYCKAQTIGRRKNLLPRPLVNGIAAMGYSSSDYDGAGTVLTVN
As for B1, the “IC50 angiogenesis: network branching” value came out at 18 µg/mL and the “IC50 angiogenesis: tube length” value stood at 18 µg/mL.

B2: vNAR R97A (clone M4) (other)
chain: ASLDQTPRTATRETGESLSINCVLTDTSHILFGTKWLWNNPGSTDWESITIGGRYAESVNNQAKSFSLQIKDLTVEDSGTYYCKAQTIGRRKNLLPAPLVNGIAAMGYSSSDYDGAGTVLTVN
With B2, the “IC50 angiogenesis: network branching” value came out at 33 µg/mL and the “IC50 angiogenesis: tube length” value turned out to be 21 µg/mL.

B3: vNAR P98Y (clone M1), anti-VEGF vNAR of SEQ ID NO:1 (other)
chain: ASLDQTPRTATRETGESLSINCVLTDTSHILFGTKWLWNNPGSTDWESITIGGRYAESVNNQAKSFSLQIKDLTVEDSGTYYCKAQTIGRRKNLLPRYLVNGIAAMGYSSSDYDGAGTVLTVN
Take B3: the “IC50 angiogenesis: network branching” value turned out to be 11 µg/mL and the “IC50 angiogenesis: tube length” value was 9 µg/mL.
